Target: hnRNPK (human (endogenous in HeLa)) (UniProt P61978)
Assay: native gel or EMSA; blue native PAGE (4-13%) of the lhCLIP sample: HeLa cells UV-crosslinked, lysate immunoprecipitated with anti-hnRNPK, MNase digestion, pCp-biotin labelling, ligation, eluted from beads at 70°C for 10 min without reducing agents; blotted with anti-hnRNPK antibody

**Q.** With “hnRNPK, P61978 1-463 (natural protein; other documents disagree on this pair)” as the substance, how does the stoichiometry N read?
**A.** 2

Source: article PMC10635571
